Results reported in patent US20050014931A1 (ABGENIX, published 2005).

B1: Mab 1A2 (antibody, V domains shown)
VH: not shown
VL: DIELTQSPDFQSVTPKEKVTITCRASQSIGSSLHWYQQKPDQSPKLLIKYASQSFSGVPSRFSGSGSGTDFTLTINSLEAEDAATYYCHQSSSLPRTFGQGTKVEIKR
B2: Mab 1F10/7C5 (antibody, V domains shown)
VH: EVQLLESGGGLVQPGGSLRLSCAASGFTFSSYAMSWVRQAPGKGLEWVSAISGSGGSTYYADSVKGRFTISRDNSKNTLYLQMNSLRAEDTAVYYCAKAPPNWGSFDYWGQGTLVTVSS
VL: DIELTQSPLSLPVTLGQPASISCRSSQSLVYSDGNTYLNWFQQRPGQSPRRLIYKVSNWDSGVPDRFSGSGSGTDFTLKISRVEAEDVGVYYCMQGTHWPRTFGQGTKVEIKR
notes: also called Mab 7C5

Molecular target: T1, Tetanus toxoid (UniProt P04958 2-1315)
T1 construct: also called TT
T1 sequence (P04958 2-457 limits assumed, chain 1 of 2): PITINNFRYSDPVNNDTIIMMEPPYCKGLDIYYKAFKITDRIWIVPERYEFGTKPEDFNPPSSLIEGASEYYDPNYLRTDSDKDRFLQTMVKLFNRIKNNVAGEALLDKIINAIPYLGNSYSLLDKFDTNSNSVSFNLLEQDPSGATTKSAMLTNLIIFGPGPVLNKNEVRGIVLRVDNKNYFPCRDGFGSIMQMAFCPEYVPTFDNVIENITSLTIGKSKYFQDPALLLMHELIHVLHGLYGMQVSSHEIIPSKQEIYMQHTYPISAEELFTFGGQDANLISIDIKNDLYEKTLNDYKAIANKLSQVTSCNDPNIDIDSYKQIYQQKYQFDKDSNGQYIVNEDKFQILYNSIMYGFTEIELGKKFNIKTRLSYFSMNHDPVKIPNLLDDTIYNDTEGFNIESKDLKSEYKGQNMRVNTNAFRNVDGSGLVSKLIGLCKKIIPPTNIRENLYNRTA
T1 sequence (P04958 458-1315 limits assumed, chain 2 of 2): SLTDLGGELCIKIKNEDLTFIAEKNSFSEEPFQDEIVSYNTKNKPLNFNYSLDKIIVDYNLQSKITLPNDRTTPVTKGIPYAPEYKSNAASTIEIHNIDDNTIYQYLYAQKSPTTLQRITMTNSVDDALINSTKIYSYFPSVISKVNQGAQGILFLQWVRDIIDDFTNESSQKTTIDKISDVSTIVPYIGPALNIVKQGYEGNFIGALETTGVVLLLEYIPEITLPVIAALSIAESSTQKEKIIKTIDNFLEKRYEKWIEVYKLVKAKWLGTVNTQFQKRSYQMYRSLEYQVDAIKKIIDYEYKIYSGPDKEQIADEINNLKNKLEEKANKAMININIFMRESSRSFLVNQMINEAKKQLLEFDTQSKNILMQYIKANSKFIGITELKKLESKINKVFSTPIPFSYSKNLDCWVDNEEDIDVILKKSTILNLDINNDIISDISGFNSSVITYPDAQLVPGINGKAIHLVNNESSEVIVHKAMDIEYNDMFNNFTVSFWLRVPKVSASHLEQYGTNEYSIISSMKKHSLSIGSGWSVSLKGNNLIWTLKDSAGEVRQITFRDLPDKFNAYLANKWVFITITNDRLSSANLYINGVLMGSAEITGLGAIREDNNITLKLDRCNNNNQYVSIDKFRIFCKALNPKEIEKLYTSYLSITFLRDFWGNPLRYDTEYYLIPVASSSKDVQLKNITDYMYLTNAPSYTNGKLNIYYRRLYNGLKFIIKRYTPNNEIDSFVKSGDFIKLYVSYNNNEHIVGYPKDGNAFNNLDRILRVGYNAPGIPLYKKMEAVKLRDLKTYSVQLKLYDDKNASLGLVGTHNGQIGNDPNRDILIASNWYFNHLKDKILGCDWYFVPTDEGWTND
Assay: ELISA screen of hybridoma supernatants

Binder | binding result
B1 | no binding
B2 | no binding
